In experiment [1] the target is WT-A34F, A34F point mutant of wild-type Gβ1 (Streptococcus). Description: SEC; analytical size-exclusion chromatography, Superdex 200 Increase; 1 mL of protein at 1 mM loaded; 10 mM sodium phosphate buffer pH 7.4, 1 mL/min; elution time compared with monomeric (wild type) and dimeric (WT-A34F) controls; self-association, monomer or dimer. (Size exclusion chromatography separates by hydrodynamic size, large species first.)

Experiment [2] concerns the target WT-A34F/V39L double mutant of wild-type Gβ1 (Streptococcus). Description: NMR titration.
Experiment [3] shares this target. Put plainly: SEC; analytical size-exclusion chromatography, Superdex 200 Increase; 1 mL of protein at 1 mM loaded; 10 mM sodium phosphate buffer pH 7.4, 1 mL/min; elution time compared with monomeric (wild type) and dimeric (WT-A34F) controls; self-association, monomer or dimer.

Broadly, the stoichiometry N is the number of molecules, sites or subunits per partner or assembly. In experiment [1], “WT-A34F, A34F point mutant of wild-type Gβ1 (domain or fragment)” came in with a stoichiometry N of 2. In general, Kd refers to the free concentration of one partner at which half of the binding sites on the other are occupied at equilibrium, for simple one-to-one binding. The low end stands for higher affinity, the high end for lower affinity. With “WT-A34F/V39L double mutant of wild-type Gβ1 (domain or fragment)”, the Kd in experiment [2] was 116 µM. In experiment [3], this substance displayed a stoichiometry N of 2.

(Values after paper PMC6879633.)
